± gives the standard deviation of the averaged measurements.
B1: library; a variant is named by its letters at N, in order (parent)
chain: GCUGUCACCGAGAAACUGUGAAGUAUAUCUUAAACCUGGGCACUUAAAAGAUAUAUGGAGUUAGUAGUGCAACCUGCUCGGUCUGAUGAGUCCNNNNNNGGACGAAACAGC

How the values were obtained:
[1] = variants of: B1; assay: FACS-Seq fitted mean relative fluorescence mCherry/BFP without ligand (log10 relative fluorescence); HEK293T; ligand: cyclic di-GMP (c-di-GMP-II aptamer); higher = higher reporter protein expression; conditions: ligand present: no
In short: (§1)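 Sorting into 6 bins by mCherry/BFP followed 48 h of incubation with or without ligand. The cells were enriched HEK293T libraries lentivirally bearing an mCherry reporter with the ribozyme switch and an EF1α-BFP marker, and bin genomic DNA was PCR-amplified, barcoded and sequenced on MiSeq. Fluorescence is the fitted normal mean of the bin counts. Means were fitted on log10(mCherry/BFP), scaled to five spiked-in control ribozymes.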

[2] = variants of: B1; assay: normalized RNA/DNA level without ligand (relative to sTRSVctl = 100) (log10 (% of sTRSVctl)); HEK293T; ligand: cyclic di-GMP (c-di-GMP-II aptamer); higher = less ribozyme self-cleavage, higher mRNA level; conditions: reporter: mCherry (pCS4076), ligand present: no
In short: (§2)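 Library plasmids encoding reporter-linked ribozyme switches (mCherry, or eGFP for some folinic acid experiments) were transfected into HEK293T at 4 µg per 6-well well. Ligand, when used, was added 1 h before transfection. Total RNA was extracted with EDTA 72 h later, then reverse-transcribed, amplified, barcoded and sequenced. RNA level was RNA reads over DNA reads, divided by a spiked-in non-cleaving control (or the top 25 sequences), ×100, log10; only sequences with ≥100 DNA reads were kept.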

[3] = variants of: B1; assay: FACS-Seq fitted mean relative fluorescence mCherry/BFP with ligand (log10 relative fluorescence); HEK293T; ligand: cyclic di-GMP (c-di-GMP-II aptamer); ligand concentration (+) FACS-Seq: 1 mM; higher = higher reporter protein expression; conditions: ligand present: yes
In short: as §1

[4] = variants of: B1; assay: normalized RNA/DNA level with ligand (relative to sTRSVctl = 100) (log10 (% of sTRSVctl)); HEK293T; ligand: cyclic di-GMP (c-di-GMP-II aptamer); ligand concentration (+) RNA-Seq: 1 mM; higher = less ribozyme self-cleavage, higher mRNA level; conditions: reporter: mCherry (pCS4076), ligand present: yes
In short: as §2

Variant | FACS-Seq fitted mean (log10) [1] | normalized RNA/DNA level without ligand (log10) [2] | FACS-Seq fitted mean (log10) [3] | normalized RNA/DNA level with ligand (log10) [4]
AGCUUG | -0.0154 ± 0.14 | 1.59 ± 0.041 | 0.223 ± 0.0032 | 1.81 ± 0.14
UCUGCU | -0.406 ± 0.013 | 1.786 ± 0.0052 | -0.176 ± 0.02 | 1.88 ± 0.081
UGCGAG | -0.503 ± 0.0063 | 1.7 ± 0.039 | -0.177 ± 0.052 | 1.8 ± 0.081
CGCAUG | -0.455 ± 0.031 | 1.627 ± 0.0082 | -0.162 ± 0.14 | 1.8 ± 0.12
CGCAUA | -0.777 ± 0.12 | 1.29 ± 0.082 | -0.5758 ± 0.0012 | 1.52 ± 0.17
UCUGAA | -0.341 ± 0.042 | 1.51 ± 0.079 | -0.0714 ± 0.032 | 1.73 ± 0.099
UCUGAU | -0.331 ± 0.024 | 1.6 ± 0.061 | -0.0535 ± 0.0022 | 1.83 ± 0.14
UGACGC | -0.22 ± 0.01 | 1.73 ± 0.027 | 0.123 ± 0.016 | 1.84 ± 0.17
AGACAA | -0.193 ± 0.061 | 1.47 ± 0.057 | 0.171 ± 0.019 | 1.65 ± 0.1
GCUGAA | -0.497 ± 0.029 | 1.45 ± 0.035 | -0.115 ± 0.0012 | 1.65 ± 0.097
GCUCGU | -0.452 ± 0.016 | 1.692 ± 0.015 | -0.0822 ± 0.049 | 1.83 ± 0.038
GCUGUA | -0.0986 ± 0.038 | 1.6 ± 0.04 | 0.213 ± 0.017 | 1.74 ± 0.12
GCUGUU | -0.596 ± 0.057 | 1.63 ± 0.059 | -0.418 ± 0.084 | 1.79 ± 0.082
GCUGUG | -0.283 ± 0.07 | 1.64 ± 0.018 | -0.00737 ± 0.013 | 1.79 ± 0.085
AGAGAA | -0.335 ± 0.073 | 1.33 ± 0.12 | -0.0362 ± 0.068 | 1.54 ± 0.1
ACUGCU | -0.0841 ± 0.15 | 1.616 ± 0.01 | 0.249 ± 0.013 | 1.8 ± 0.14
CCUGGC | -0.646 ± 0.017 | 1.68 ± 0.034 | -0.459 ± 0.0093 | 1.82 ± 0.14
UGAAUC | -0.558 ± 0.0095 | 1.72 ± 0.011 | -0.4 ± 0.028 | 1.85 ± 0.083
CCUGCC | -0.367 ± 0.12 | 1.79 ± 0.018 | -0.0275 ± 0.059 | 1.89 ± 0.052
CCUUAG | -0.183 ± 0.044 | 1.64 ± 0.026 | 0.161 ± 0.06 | 1.83 ± 0.12
CCUUAA | -0.397 ± 0.009 | 1.45 ± 0.092 | -0.161 ± 0.043 | 1.63 ± 0.12
CCUGUA | -0.428 ± 0.0045 | 1.54 ± 0.15 | -0.0267 ± 0.0096 | 1.73 ± 0.077
GCUCUA | -0.242 ± 0.011 | 1.64 ± 0.039 | 0.0781 ± 0.02 | 1.8 ± 0.025
GCUCUU | -0.277 ± 0.12 | 1.66 ± 0.07 | -0.215 ± 0.015 | 1.82 ± 0.16

Variant | FACS-Seq fitted mean (log10) [1] | normalized RNA/DNA level without ligand (log10) [2] | FACS-Seq fitted mean (log10) [3] | normalized RNA/DNA level with ligand (log10) [4]
UGAUGU | -0.179 ± 0.057 | 1.63 ± 0.052 | 0.187 ± 0.058 | 1.84 ± 0.089
UGAUGA | -0.253 ± 0.0055 | 1.58 ± 0.033 | 0.00931 ± 0.037 | 1.8 ± 0.099
CGAUAU | -0.508 ± 0.039 | 1.43 ± 0.1 | -0.183 ± 0.014 | 1.62 ± 0.11
CGAUAA | -0.6883 ± 0.0045 | 1.22 ± 0.1 | -0.358 ± 0.058 | 1.41 ± 0.033
UCUUAG | 0.0393 ± 0.27 | 1.66 ± 0.05 | 0.27 ± 0.049 | 1.8 ± 0.086
CGAAGA | -0.38091 ± 0.00015 | 1.37 ± 0.096 | -0.0195 ± 0.04 | 1.65 ± 0.075
AGAGGA | -0.441 ± 0.0074 | 1.4 ± 0.11 | -0.212 ± 0.025 | 1.56 ± 0.11
AGACUA | -0.122 ± 0.029 | 1.55 ± 0.038 | 0.261 ± 0.022 | 1.74 ± 0.14
ACUCCC | -0.621 ± 0.049 | 1.77 ± 0.049 | -0.284 ± 0.087 | 1.87 ± 0.14
GCUUAG | -0.473 ± 0.076 | 1.638 ± 0.0094 | -0.165 ± 0.16 | 1.79 ± 0.069
GCUUAA | -0.0927 ± 0.12 | 1.56 ± 0.088 | 0.338 ± 0.039 | 1.7 ± 0.072
AGAACU | -0.833 ± 0.11 | 1.68 ± 0.031 | -0.561 ± 0.02 | 1.82 ± 0.11
AGAACA | 0.105 ± 0.17 | 1.53 ± 0.036 | 0.348 ± 0.0047 | 1.72 ± 0.13
AGCGGU | -0.189 ± 0.03 | 1.64 ± 0.024 | 0.149 ± 0.093 | 1.8 ± 0.1
GGCGAG | -0.757 ± 0.036 | 1.5556 ± 0.00075 | -0.498 ± 0.0053 | 1.68 ± 0.14
AGCCUA | -0.0368 ± 0.15 | 1.62 ± 0.011 | 0.288 ± 0.026 | 1.8 ± 0.15
AGCCUU | 0.0156 ± 0.081 | 1.712 ± 0.003 | 0.33 ± 0.038 | 1.85 ± 0.084
AGCGAA | -0.109 ± 0.022 | 1.41 ± 0.069 | 0.163 ± 0.081 | 1.61 ± 0.15
CGCUCU | -0.865 ± 0.06 | 1.54 ± 0.049 | -0.64 ± 0.039 | 1.73 ± 0.1
ACUCUU | -0.426 ± 0.095 | 1.636 ± 0.0073 | -0.112 ± 0.0059 | 1.83 ± 0.11
CGAUGA | -0.364 ± 0.049 | 1.47 ± 0.059 | -0.172 ± 0.032 | 1.62 ± 0.12
CGAUGC | -0.127 ± 0.16 | 1.722 ± 0.014 | 0.202 ± 0.062 | 1.88 ± 0.049
UGAAAU | -0.0172 ± 0.1 | 1.66 ± 0.043 | 0.368 ± 0.014 | 1.84 ± 0.14
CGCUUA | -0.545 ± 0.077 | 1.27 ± 0.17 | -0.264 ± 0.015 | 1.46 ± 0.036

Variant | FACS-Seq fitted mean (log10) [1] | normalized RNA/DNA level without ligand (log10) [2] | FACS-Seq fitted mean (log10) [3] | normalized RNA/DNA level with ligand (log10) [4]
CGCUUU | -0.255 ± 0.035 | 1.46 ± 0.071 | 0.0291 ± 0.018 | 1.69 ± 0.073
CGAACA | -0.456 ± 0.075 | 1.58 ± 0.045 | -0.276 ± 0.0035 | 1.7 ± 0.074
UGCAAU | -0.335 ± 0.12 | 1.66 ± 0.045 | -0.151 ± 0.047 | 1.81 ± 0.089
AGAUAA | -0.905 ± 0.032 | 1.44 ± 0.11 | -0.444 ± 0.023 | 1.65 ± 0.11
CGCAAU | -0.449 ± 0.027 | 1.45 ± 0.087 | -0.206 ± 0.045 | 1.61 ± 0.078
CGCAAA | -0.531 ± 0.011 | 1.26 ± 0.097 | -0.262 ± 0.015 | 1.47 ± 0.085
GCUGCG | -1.43 ± 0.31 | 1.789 ± 0.016 | -1.28 ± 0.14 | 1.87 ± 0.13
GCUGCA | 0.156 ± 0.0048 | 1.77 ± 0.025 | 0.255 ± 0.059 | 1.85 ± 0.089
ACUGUA | -0.443 ± 0.033 | 1.51 ± 0.076 | -0.138 ± 0.021 | 1.76 ± 0.094
ACUCAG | -0.836 ± 0.044 | 1.61 ± 0.031 | -0.677 ± 0.16 | 1.77 ± 0.1
GCUGGA | -0.599 ± 0.036 | 1.49 ± 0.085 | -0.196 ± 0.038 | 1.71 ± 0.099
GCUGGU | -0.0949 ± 0.014 | 1.6 ± 0.057 | 0.119 ± 0.16 | 1.76 ± 0.099
CGACUA | -0.6395 ± 0.004 | 1.35 ± 0.17 | -0.239 ± 0.0063 | 1.48 ± 0.053
CGACUG | -0.0298 ± 0.017 | 1.703 ± 0.0006 | 0.297 ± 0.061 | 1.83 ± 0.074
AGCAAU | -0.834 ± 0.048 | 1.74 ± 0.037 | -0.638 ± 0.037 | 1.87 ± 0.16
AGCAAA | -0.531 ± 0.032 | 1.48 ± 0.042 | -0.277 ± 0.1 | 1.64 ± 0.14
AGAUGA | -0.545 ± 0.04 | 1.4 ± 0.13 | -0.336 ± 0.063 | 1.61 ± 0.14
AGAUGC | -0.7631 ± 0.0076 | 1.66 ± 0.056 | -0.47 ± 0.029 | 1.77 ± 0.12
CGAAUA | -0.507 ± 0.0079 | 1.24 ± 0.091 | -0.209 ± 0.083 | 1.45 ± 0.086
CGAAUU | -0.504 ± 0.036 | 1.38 ± 0.11 | -0.238 ± 0.016 | 1.57 ± 0.088
CCUCCC | -0.363 ± 0.069 | 1.81 ± 0.025 | -0.153 ± 0.079 | 1.89 ± 0.12
CCUCCU | -0.211 ± 0.0029 | 1.678 ± 0.011 | 0.278 ± 0.026 | 1.77 ± 0.098
CCUCCG | 0.138 ± 0.023 | 1.769 ± 0.013 | 0.32 ± 0.035 | 1.87 ± 0.073

Reference: the supplement of paper PMC6757056
